Publication PMC9592637, “Functional characterization and transcriptional repression by Lacticaseibacillus paracasei DinJ-YafQ” (Applied Microbiology and Biotechnology, 2022)

Assays:
[1] = test system: DinJ;YafQ_pa2333 (Lacticaseibacillus paracasei 4366;Lacticaseibacillus paracasei 2333); assay: EMSA; conditions: EMSA: 2 nM DNA, 128 ng salmon sperm DNA in 10 uL, 50 mM Tris-HCl pH 7.5, 50 mM KCl, 5% glycerol, room temperature 10 min, 6% native PAGE in TBE; RNAP …
[2] = test system: DinJ;YafQ_pa4366 (Lacticaseibacillus paracasei 4366;Lacticaseibacillus paracasei 4366); assay: EMSA; conditions: EMSA: 2 nM DNA, 128 ng salmon sperm DNA in 10 uL, 50 mM Tris-HCl pH 7.5, 50 mM KCl, 5% glycerol, room temperature 10 min, 6% native PAGE in TBE; RNAP …
[3] = test system: DinJ R13A (Lacticaseibacillus paracasei 4366); assay: EMSA; conditions: complete loss of binding up to 1.5 uM; EMSA: 2 nM DNA, 128 ng salmon sperm DNA in 10 uL, 50 mM Tris-HCl pH 7.5, 50 mM KCl, 5% glycerol, room temperature 10 min, 6% native PAGE in TBE; RNAP …
[4] = test system: T1, DinJ;YafQ_pa4366 (Lacticaseibacillus paracasei 4366;Lacticaseibacillus paracasei 4366), ORF:82b9b73a+ORF:f6e62217; assay: competition; conditions: EMSA: 2 nM DNA, 128 ng salmon sperm DNA in 10 uL, 50 mM Tris-HCl pH 7.5, 50 mM KCl, 5% glycerol, room temperature 10 min, 6% native PAGE in TBE; RNAP …
T1 sequence 1: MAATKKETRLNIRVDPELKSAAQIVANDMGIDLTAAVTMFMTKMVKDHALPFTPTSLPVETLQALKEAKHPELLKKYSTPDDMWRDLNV
T1 sequence 2: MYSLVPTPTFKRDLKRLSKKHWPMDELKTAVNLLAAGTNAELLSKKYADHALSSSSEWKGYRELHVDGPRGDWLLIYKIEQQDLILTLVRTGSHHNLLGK

## 194-bp dinJ-yafQ promoter fragment
[1]
  Kd: 0.079 µM
[2]
  Kd: 0.044 µM
[3]
  Kd: > 1.5 µM

## CGTCCTCAAGCTGCTCTTGTGTTAATGGTTTCTTTTTTGTGCTCATACGTTAAATCTATCACCGCAAGGGATAAATATCTAACACCGTGCGTGTTGACTATTTTACCTCTGGCGGTGATAATGGTTGCATGTACTAAGGAGGTTGTATGGAACAACGCATAACCCTGAAAGATTATGCAATGCGCTTTGGGCAAAC (double strand) [196-bp lambda PR promoter fragment]
[4]
  binding: no binding
